Measured values taken from patent US20220031842A1 (JIANGSU HENGRUI MEDICINE, published 2022).

T1: Fusion protein of LAG-3 extracellular region and mIgG2a Fc (human)
T1 construct: Limits of the signal peptide are marked only by lost underlining; also called LAG-3-mFc; LAG-3-mFc fusion protein
T1 chain: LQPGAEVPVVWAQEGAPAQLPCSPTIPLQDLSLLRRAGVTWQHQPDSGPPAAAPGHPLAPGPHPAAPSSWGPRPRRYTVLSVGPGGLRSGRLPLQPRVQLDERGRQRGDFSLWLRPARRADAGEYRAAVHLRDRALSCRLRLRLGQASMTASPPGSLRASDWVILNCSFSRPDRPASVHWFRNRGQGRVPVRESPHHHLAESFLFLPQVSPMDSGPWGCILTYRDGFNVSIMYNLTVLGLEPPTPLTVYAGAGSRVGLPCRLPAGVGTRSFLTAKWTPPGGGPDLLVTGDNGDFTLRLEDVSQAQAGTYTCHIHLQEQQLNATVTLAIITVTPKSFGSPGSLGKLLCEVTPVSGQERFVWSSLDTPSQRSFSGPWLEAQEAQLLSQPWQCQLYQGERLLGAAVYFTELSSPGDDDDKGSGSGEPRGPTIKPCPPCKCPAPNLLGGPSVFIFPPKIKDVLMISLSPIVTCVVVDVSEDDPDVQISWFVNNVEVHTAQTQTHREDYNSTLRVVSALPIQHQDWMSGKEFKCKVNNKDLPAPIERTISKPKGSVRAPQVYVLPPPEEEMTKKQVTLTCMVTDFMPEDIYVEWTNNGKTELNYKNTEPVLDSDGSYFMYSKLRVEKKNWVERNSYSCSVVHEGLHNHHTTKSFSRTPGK

B1: Hu229-008 (antibody, human IgG4 S228P, kappa, V domains shown)
VH: QVQLVQSGSELKKPGASVKVSCKASGYTFTTSGMSWVRQAPGQGLKWMGWINTYSGVPTYADDFKGRFVFSLDTSVSTAYLQISSLKAEDTAVYYCARDNYDARDVYYYAMDYWGQGTTVTVSS
VL: DIQMTQSPSSLSASVGDRVTITCRASENIYSNLAWYQQKPGKAPKLLIYAATNLADGVPSRFSGSGSGTDFTLTISSLQPEDFATYYCQHFWITPWTFGGGTKVEIKR
notes: Humanized mAb229
B2: Hu229-012 (antibody, human IgG4 S228P, kappa, V domains shown)
VH: QVQLVQSGSELKKPGASVKVSCKASGYTFTTSGMSWVKQAPGQGLKWMGWINTYSGVPTYADDFKGRFVFSLDTSVSTAYLQISSLKAEDTATYYCARDNYDARDVYYYAMDYWGQGTTVTVSS
VL: DIQMTQSPSSLSASVGDRVTITCRASENIYSNLAWYQQKPGKAPKLLIYAATNLADGVPSRFSGSGSGTDFTLTISSLQPEDFATYYCQHFWITPWTFGGGTKVEIKR
notes: Humanized mAb229
B3: Hu303-011 (antibody, human IgG4 S228P, kappa, V domains shown)
VH: QVQLVQSGAEVKKPGASVKVSCKASGYTFTDYYMNWVRQAPGQRLEWMGVINPYNGDTAYNQKFKGRVTITVDKSASTAYMELSSLRSEDTAVYYCTRDDGYYDYYFDVWGQGTTVTVSS
VL: DIQMTQSPSSLSASVGDRVTITCRASQDIGSRLNWYQQKPGKAPKRLIYATSTLDSGVPKRFSGSRSGTDFTLTISSLQPEDFATYYCLQLASSPPTFGGGTKVEIKR
notes: Humanized mAb303
B4: Hu303-021 (antibody, human IgG4 S228P, kappa, V domains shown)
VH: QVQLVQSGAEVKKPGASVKVSCKASGYTLTDYYMNWVRQAPGQRLEWIGVINPYNGDTAYNQKFKGRATLTVDKSASTAYMELSSLRSEDTAVYYCTRDDGYYDYYFDVWGQGTTVTVSS
VL: DIQMTQSPSSLSASVGDRVTITCRASQDIGSRLNWYQQKPGKAPKRLIYATSTLDSGVPKRFSGSRSGTDFTLTISSLQPEDFATYYCLQLASSPPTFGGGTKVEIKR
notes: Humanized mAb303
B5: Hu303-012 (antibody, human IgG4 S228P, kappa, V domains shown)
VH: QVQLVQSGAEVKKPGASVKVSCKASGYTFTDYYMNWVRQAPGQRLEWMGVINPYNGDTAYNQKFKGRVTITVDKSASTAYMELSSLRSEDTAVYYCTRDDGYYDYYFDVWGQGTTVTVSS
VL: DIQMTQSPSSLSASVGDRVTITCRASQDIGSRLNWLQQKPGKAFKRLIYATSTLDSGVPKRFSGSRSGTDFTLTISSLQPEDFATYYCLQLASSPPTFGGGTKVEIKR
notes: Humanized mAb303
B6: Hu303-018 (antibody, human IgG4 S228P, kappa, V domains shown)
VH: QVQLVQSGAEVKKPGASVKVSCKASGYTLTDYYMNWVRQAPGQRLEWMGVINPYNGDTAYNQKFKGRVTITVDKSASTAYMELSSLRSEDTAVYYCTRDDGYYDYYFDVWGQGTTVTVSS
VL: DIQMTQSPSSLSASVGDRVTLTCRASQDIGSRLNWLQQKPGGAFKRLIYATSTLDSGVPKRFSGSRSGTDFTLTISSLQPEDFADYYCLQLASSPPTFGGGTKVEIKR
notes: Humanized mAb303
B7: Hu303-008 (antibody, human IgG4 S228P, kappa, V domains shown)
VH: QVQLVQSGAEVKKPGASVKVSCKASGYTFTDYYMNWVRQAPGQRLEWMGVINPYNGDTAYNQKFKGRVTITRDTSASTAYMELSSLRSEDTAVYYCARDDGYYDYYFDVWGQGTTVTVSS
VL: DIQMTQSPSSLSASVGDRVTLTCRASQDIGSRLNWLQQKPGGAFKRLIYATSTLDSGVPKRFSGSRSGTDFTLTISSLQPEDFADYYCLQLASSPPTFGGGTKVEIKR
notes: Humanized mAb303
B8: Hu303-017 (antibody, human IgG4 S228P, kappa, V domains shown)
VH: QVQLVQSGAEVKKPGASVKVSCKASGYTLTDYYMNWVRQAPGQRLEWMGVINPYNGDTAYNQKFKGRVTITVDKSASTAYMELSSLRSEDTAVYYCTRDDGYYDYYFDVWGQGTTVTVSS
VL: DIQMTQSPSSLSASVGDRVTITCRASQDIGSRLNWLQQKPGKAFKRLIYATSTLDSGVPKRFSGSRSGTDFTLTISSLQPEDFATYYCLQLASSPPTFGGGTKVEIKR
notes: Humanized mAb303
B9: Hu303-013 (antibody, human IgG4 S228P, kappa, V domains shown)
VH: QVQLVQSGAEVKKPGASVKVSCKASGYTFTDYYMNWVRQAPGQRLEWMGVINPYNGDTAYNQKFKGRVTITVDKSASTAYMELSSLRSEDTAVYYCTRDDGYYDYYFDVWGQGTTVTVSS
VL: DIQMTQSPSSLSASVGDRVTLTCRASQDIGSRLNWLQQKPGGAFKRLIYATSTLDSGVPKRFSGSRSGTDFTLTISSLQPEDFADYYCLQLASSPPTFGGGTKVEIKR
notes: Humanized mAb303
B10: Hu303-015 (antibody, human IgG4 S228P, kappa, V domains shown)
VH: QVQLVQSGAEVKKPGASVKVSCKASGYTLTDYYMNWVRQAPGQRLEWMGVINPYNGDTAYNQKFKGRVTITVDKSASTAYMELSSLRSEDTAVYYCTRDDGYYDYYFDVWGQGTTVTVSS
VL: DIQMTQSPSSLSASVGDRVTITCRASQDIGSRLNWYQQKPGKAPKRLIYATSTLDSGVPSRFSGSRSGTDFTLTISSLQPEDFATYYCLQLASSPPTFGGGTKVEIKR
notes: Humanized mAb303
B11: Hu303-019 (antibody, human IgG4 S228P, kappa, V domains shown)
VH: QVQLVQSGAEVKKPGASVKVSCKASGYTLTDYYMNWVRQAPGQRLEWIGVINPYNGDTAYNQKFKGRATLTVDKSASTAYMELSSLRSEDTAVYYCTRDDGYYDYYFDVWGQGTTVTVSS
VL: DIQMTQSPSSLSASVGDRVTITCRASQDIGSRLNWYQQKPGKAPKLLIYATSTLDSGVPSRFSGSGSGTDFTLTISSLQPEDFATYYCLQLASSPPTFGGGTKVEIKR
notes: Humanized mAb303
B12: Hu303-007 (antibody, human IgG4 S228P, kappa, V domains shown)
VH: QVQLVQSGAEVKKPGASVKVSCKASGYTFTDYYMNWVRQAPGQRLEWMGVINPYNGDTAYNQKFKGRVTITRDTSASTAYMELSSLRSEDTAVYYCARDDGYYDYYFDVWGQGTTVTVSS
VL: DIQMTQSPSSLSASVGDRVTITCRASQDIGSRLNWLQQKPGKAFKRLIYATSTLDSGVPKRFSGSRSGTDFTLTISSLQPEDFATYYCLQLASSPPTFGGGTKVEIKR
notes: Humanized mAb303
B13: Hu303-020 (antibody, human IgG4 S228P, kappa, V domains shown)
VH: QVQLVQSGAEVKKPGASVKVSCKASGYTLTDYYMNWVRQAPGQRLEWIGVINPYNGDTAYNQKFKGRATLTVDKSASTAYMELSSLRSEDTAVYYCTRDDGYYDYYFDVWGQGTTVTVSS
VL: DIQMTQSPSSLSASVGDRVTITCRASQDIGSRLNWYQQKPGKAPKRLIYATSTLDSGVPSRFSGSRSGTDFTLTISSLQPEDFATYYCLQLASSPPTFGGGTKVEIKR
notes: Humanized mAb303

Tests used:
[1] = target: T1, Fusion protein of LAG-3 extracellular …; assay: ELISA, LAG-3-mFc captured by anti-mouse Fc on plate (which fusion: inferred)
Description: The binding ability of anti-LAG-3 antibody to human LAG-3 protein was detected by ELISA assay. LAG-3 fusion protein with Fc or mFc tag was immobilized into 96-well microtiter plate by binding to anti-Fc or anti-mFc antibody coated on the microtiter plate, the strength of the signal after the addition of the antibody was used to determine the binding activity of the antibody to LAG-3, the specific experimental method is as follows.
The goat anti-human Fc antibody (Jackson Immuno Research, Cat No. 109-005-008) or goat anti-mouse Fc antibody (Sigma, Cat No. M3534-1ML) was diluted to a concentration of 2 μg/ml with PBS buffer at pH 7.4 (Sigma, Cat No. P4417-100TAB), and added to a 96-well plate at a volume of 50 μl/well and then, the plate was incubated in the incubator at 37° C. for 2 hours. After discarding the liquid, the plates were blocked with 200 μl/well of blocking solution containing 5% skim milk (Bright Dairy, skim milk powder) in PBS, and incubated in the incubator at 37° C. for 2.5 hours or overnight at 4° C. (16-18 hours). After blocking, the blocking solution was discarded and the plate was washed 5 times with PBST buffer (PH7.4 PBS containing 0.05% tween-20). LAG-3-Fc fusion protein (SEQ ID NO:3, produced in-house) or LAG-3-mFc fusion protein (SEQ ID NO: 4, produced in-house) was diluted with sample diluent (PH7.4 PBS containing 1% BSA) to 1 μg/ml and was added to each well, 50 μl/well. Then the plate was incubated in the incubator at 37° C. for 1 h or overnight at 4° C. After incubation, the reaction solution in the plate was discarded, and the plate was washed with PBST for 6 times, and then was added with 50 μl/well of various concentrations of antibodies to be tested (hybridoma purified antibody or humanized antibody) which have been diluted with sample diluent, and the plate was incubated at 37° C. for 1 h. The plates was washed 5 times with PBST after incubation, and was added with 100 μl/well of goat anti-mouse (Jackson Immuno Research, Cat No. 115-035-003) or goat anti-human secondary antibody (Jackson Immuno Research, Cat No. 109-035-003) labeled with HRP, diluted in sample diluent, and the plate was incubated at 37° C. for 1 h.

[2] = target: T2, Fusion protein of LAG-3 extracellular region and hIgG1 Fc (human); assay: competition: biotin-LAG-3-Fc binding to fixed Daudi cells, antibody titrated
T2 construct: Limits of the signal peptide are marked only by lost underlining; also called LAG-3-Fc; LAG-3-Fc fusion protein
Method: Daudi cells (human leukemia cells, purchased from the cell bank in Chinese Academy of Sciences) were seeded in 96-well plate with a density of 3×10⁵/well. After centrifugation at 1000 rpm, the supernatant was discarded and then the plate was fixed with 4% PFA for 30 min at room temperature. The plate was washed 4 times with PBS after discarding the fixed solution, and the plate was blocked with 200 μl/well of blocking solution containing 5% skim milk (Bright Dairy, skim milk powder) diluted in PBS, and incubated at 37° C. for 2.5 hours. After blocking, the blocking solution was discarded and the plate was washed 5 times with PBST buffer (pH7.4 PBS containing 0.05% tween-20), added with 50 μl/well mixture of biotin-labeled (Biotin labeling kit, Dojindo Chemical, Cat No. LK03) LAG-3-Fc fusion protein (produced in-house, SEQ ID NO: 3) and gradient concentrations of the antibody to be tested, wherein the biotin-labeled LAG-3-Fc fusion protein has been diluted with sample diluent (PH7.4 PBS containing 1% BSA) at a final concentration of 0.4 μg/ml, and pre-mixed for an hour, then the plate was incubated at 37° C. for 1 h. The reaction solution was discarded and the plate was washed 5 times with PBST after incubation, 50 μl/well of HRP-labeled Streptavidin (Sigma, Cat No. 52438) diluted with sample diluent was added, and the plate was incubated at 37° C. for 1 h. After washing the plate 5 times with PBST, 50 μl/well of TMB chromogenic substrate (KPL, Cat No. 52-00-03) was added to each well, and incubated at room temperature for 5-15 min, the reaction was stopped by the addition of 50 μl 1M H₂SO₄ to each well. The OD value at a wavelength of 450 nm was read on NOVOStar microplate reader, and then the activity of the LAG-3 antibody in blocking the binding of the antigen to Daudi cells was calculated.

Binder	EC50 [1] [nM]	IC50 [2] [nM]
B1	0.506	
B2	0.268	
B3	0.314	0.728
B4	0.17	0.456
B5	0.164	0.361
B6	0.244	0.608
B7	0.14	0.346
B8	0.168	0.398
B9	0.166	0.347
B10	0.172	0.398
B11	0.277	0.471
B12	0.135	0.343
B13	0.14	0.345
